Publication PMC4537179

Tests used:
Assay in all cases: SPR
c-Myc bHLH-ZIP = c-Myc bHLH-ZIP (Homo sapiens (human), UniProt P01106-1 353-437)
Max(S) = Max(S) (UniProt P61244-2 1-151)
Max(L) = Max(L) (UniProt P61244 1-160)

Sequence of c-Myc bHLH-ZIP (P01106 368-452): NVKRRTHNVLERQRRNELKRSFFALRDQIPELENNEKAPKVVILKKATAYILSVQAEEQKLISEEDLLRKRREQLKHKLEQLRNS

B1: biotinylated E-box oligonucleotide (dsDNA)
DNA 1: TGAAGCAGACCACGTGGTCGTCTTCA
DNA 2: TGAAGACGACCACGTGGTCTGCTTCA
c-Myc bHLH-ZIP
  binding result: no binding
Max(S)
  binding result: no binding
Max(L)
  binding result: binds
